Measurements from patent publication US20220348635A1, “COMPOSITIONS AND METHODS FOR NEUROLOGICAL DISEASES” (Coda Biotherapeutics, Inc., priority 2019, published 2022).

Legend:
Type in all cases: cell-based
[1] = Manual patch clamp, HEK cell line, Facinicline/RG3487; details: HEK293 cells and cultured rat DRG sensory neurons
Procedure: (§1) FIG. 2A-FIG. 2B show the concentration-response curves of CR-11 (Chemogenic receptor-11, an engineered receptor comprising an amino acid sequence having the amino acid substitutions of Y115D and L131Q in SEQ ID NO: 33) expressed in HEK 293 cells to acetylcholine as well as to non-native ligands RG-3487 (SA-2, Synthetic Agonist-2). The responses were evaluated using manual patch clamp electrophysiology. Currents were normalized to unity for the maximal response. The continuous line through the data points is the best fit obtained with the Hill equation, and EC50s for each ligand are estimated from the concentration-response curves.
(§2) Using whole cell manual patch clamp electrophysiology in HEK293 cells and rat DRG neurons, the EC50 of the various engineered receptors disclosed herein to Ach and non-native ligands was measured. The rheobase shift was also measured in rat DRG neurons, which reflects the efficacy of the receptors. To calculate the rheobase, first, the amount of current that can produce an action potential was determined. Then the ligand was added, followed by a step wise increase in the current injected up to 700 pA. […] The EC50 was calculated using the Hill equation with peak current measurements from escalating doses of ligand.

[2] = YFP quench plate reader assay, response to TC-6987; details: LX293T YFP reporter cells
In short: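 LX293T cells stably expressing an anion-quenched YFP reporter were transiently transfected with DNA for double-substitution mutants of chimeric LGIC SEQ ID NO:33. Ligand, prepared at 2× in NaI-based ECS (pH 7.2), was added after a 17 sec baseline, and YFP quench was read over 2 min on a Flexstation3.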

[3] = Manual patch clamp, HEK cell line, acetylcholine; details: HEK293 cells and cultured rat DRG sensory neurons
Procedure: as §1, §2

[4] = High throughput electrophysiology in HEK293T cells, RG-3487
Procedure: To confirm the EC50s determined by plate reader as well as develop a better understanding of maximum current flow, the engineered receptors were subjected to high throughput electrophysiology system, as described below. For HEK293T studies, cDNAs encoding ion channels were cloned into pcDNA3.1 using standard recombination techniques. HEK293T cells from Clontech (Lenti-X™ 293T Cell Line) were cultured in DMEM supplemented with 10% FBS and 1% Pen/Strep to 40-50% confluence using standard cell culture protocols, transfected with ion channel plasmids at a concentration of 18 μg per 15 cm dish using Fugene 6, and grown for an additional 24 hours. Cells were then assayed on a electrophysiological system (IonFluxHT and/or Mercury, Fluxion Biosciences) in which dose-response relationships may be assessed through a microfluidics-based platform for establishing whole cell configurations. […] Data were then analyzed off-line using custom Python scripts to convert data to .csv format, re-plot traces, and apply QC measurements to reject unstable recordings (i.e. thresholding based on access resistance and/or standard deviation in baseline, as well as artifact rejection). Peak currents were then calculated and population data were fit using a 4-parameter logistic equation as described by the Hill Equation. […]

B1: Y115D, L131Q in SEQ ID NO: 33: CR-11 (Chemogenic receptor-11): SEQ ID NO: 33 with substitutions Y115D and L131Q (protein)
chain: MRCSPGGVWLALAASLLHVSLQGEFQRKLYKELVKNYNPLERPVANDSQPLTVYFSLSLLQIMDVDEKNQVLTTNIWLQMSWTDHYLQWNVSEYPGVKTVRFPDGQIWKPDILLDNSADERFDATFHTNVQVNSSGHCQYLPPGIFKSSCPMDLKNFPMDVQTCKLKFGSWSYGGWSLDLQMQEADISGYIPNGEWDLVGIPGKRSERFYECCKEPYPDVTFTVTMRRRMGYYLIQMYIPSLLIVILSWISFWINMDAAPARVGLGITTVLTMTTQSSGSRASLPKVSYVKAIDIWMAVCLLFVFSALLEYAAVNFVSRQHKELLRFRRKRRHHKSPMLNLFQEDEAGEGRFNFSAYGMGPACLQAKDGISVKGANNSNTTNPPPAPSKSPEEMRKLFIQRAKKIDKISRIGFPMAFLIFNMFYWIIYKIVRREDVHNQ
modifications: synthetic sequence of chimeric LGIC
In the case of B1, the “sensitivity to RG-3487 compared to wildtype nAchRa7 receptor” value [1] is reported as “more sensitive”, the “percent quench of YFP fluorescence, 1 uM tc6” value ([2]; 1 uM TC-6987) is reported as 38.83% and the “percent quench of YFP fluorescence, 10 uM tc6” value ([2]; 10 uM TC-6987) is reported as 31.59%. For the same molecule, the “percent quench of YFP fluorescence, 500 uM tc6” value ([2]; 500 uM TC-6987) was 29.83%, the “sensitivity / potency to acetylcholine” value [3] was “essentially insensitive” and the “fold increased potency to RG-3487 compared to wild type receptor” value [4] was “over 10 fold”.
